This assay has as its target avidin (Gallus gallus, UniProt P02701). As to conditions: for A500 Measurement reagent 1: room temperature 5 minutes.

These results are taken from patent US20230288426A1, “REAGENT FOR MEASURING L-BIOTIN, METHOD FOR MEASURING SAMPLE CONTAINING L-BIOTIN, METHOD FOR DETERMINING NUMBER OF LABELS OF L-BIOTIN-LABELED SUBSTANCE, AND METHOD FOR PRODUCING SOLID PHASE ON WHICH OPTICALLY ISOMERIC BIOTIN-BINDING SITE IS IMMOBILIZED” (SYSMEX CORPORATION, priority 2022, published 2023).

Read-outs that look alike come from different tables or passages of the source.

Sequence of avidin (P02701 25-152): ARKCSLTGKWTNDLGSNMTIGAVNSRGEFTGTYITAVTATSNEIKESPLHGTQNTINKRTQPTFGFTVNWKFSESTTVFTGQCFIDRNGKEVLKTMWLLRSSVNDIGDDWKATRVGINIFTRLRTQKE
Method: HABA (1 mg) and PBS (33 mL) were mixed to obtain a HABA solution. […] In the reagent, the concentration of avidin was 250 μg/mL, and the concentration of HABA was 30 μg/mL.
A reagent for measuring L-biotin (91.7 μL) was mixed with 0.1 M phosphate buffer (pH 7.5, 18.3 μL) or an L-biotin standard solution (18.3 μL), and the mixture was allowed to stand at room temperature for 5 minutes. Then, the absorbance at 500 nm (A500) of the reaction mixture was measured by spectrophotometer UV-2600 (Shimadzu Corporation). […] As a calibration curve, a straight line by a least squares method was used.
A sample containing the L-biotin-labeled BSA prepared in the above (3.2.1) was diluted 100-fold with 0.1 M phosphate buffer (pH 7.5). A reagent for measuring L-biotin (91.7 μL) and a sample containing diluted L-biotin-labeled BSA (18.3 μL) or a sample containing an L-biotin-labeled antibody (18.3 μL) were mixed, and the mixture was allowed to stand at room temperature for 5 minutes. Then, A500 of the reaction mixture was measured by UV-2600. The amount (μM) of L-biotin contained in each sample was determined from a calibration curve (regression equation) for the reagent for measuring L-biotin.

On to `O=C(O)CCCC[C@@H]1SC[C@@H]2NC(=O)N[C@@H]21` [D-Biotin, 3aS,4S,6aR-D-biotin], for which the “A500 Measurement reagent 1” value is, setting by setting: (D-biotin standard solution 25 μM) 0.194; (D-biotin standard solution 50 μM) 0.062.

“D-Bio-BSA: BSA labeled with D-biotin AC5-NHS” registered a Biotin concentration (D-biotin in sample, Table 3) of 1375.0 µM. The D-Biotin (from calibration curve, BSA sample value multiplied by 100) came out at 1375.0 µM. The molecule further displayed an A500 (sample with Reagent 1 for measuring D-biotin, BSA sample diluted 100-fold) of 0.257.
